Results taken from patent publication US20190194324A1 (Johns Hopkins, published 2019).

Experiments:
Human α-syn PFF [1] = target: T1, Human α-syn PFF (human, UniProt P37840 1-140); test: expression cloning screen of 352 transmembrane proteins in SH-SY5Y cells
[2] = target: T2, α-syn-biotin PFF (biotin-labelled α-synuclein pre-formed fibrils) (mouse, UniProt O55042 1-140); test: alkaline phosphatase binding assay on cultured cortical neurons, WT minus LAG3-/-
[3] = target: T2, α-syn-biotin PFF (biotin-labelled …); test: cell surface binding assay on cells overexpressing the deletion mutant
Human α-syn PFF [4] = target: T1, Human α-syn PFF; test: expression cloning screen in SH-SY5Y cells, streptavidin-AP staining
[5] = target: α-syn-biotin PFF (biotin-labelled α-synuclein pre-formed fibrils) (mouse, UniProt O55042 1-140); test: cell surface binding on LAG3-overexpressing SH-SY5Y cells, Scatchard analysis; 0% or 0.1% Triton X-100 (the legend marks both values only 'TX-100')

B1: APLP1 (NM_005166) expressed in SH-SY5Y cells (Origene GFC-transfection array clone) (receptor)
chain: SLAGGSPGAAEAPGSAQVAGLCGRLTLHRDLRTGRWEPDPQRSRRCLRDPQRVLEYCRQMYPELQIARVEQATQAIPMERWCGGSRSGSCAHPHHQVVPFRCLPGEFVSEALLVPEGCRFLHQERMDQCESSTRRHQEAQEACSSQGLILHGSGMLLPCGSDRFRGVEYVCCPPPGTPDPSGTAVGDPSTRSWPPGSRVEGAEDEEEEESFPQPVDDYFVEPPQAEEEEETVPPPSSHTLAVVGKVTPTPRPTDGVDIYFGMPGEISEHEGFLRAKMDLEERRMRQINEVMREWAMADNQSKNLPKADRQALNEHFQSILQTLEEQVSGERQRLVETHATRVIALINDQRRAALEGFLAALQADPPQAERVLLALRRYLRAEQKEQRHTLRHYQHVAAVDPEKAQQMRFQVHTHLQVIEERVNQSLGLLDQNPHLAQELRPQIQELLHSEHLGPSELEAPAPGGSSEDKGGLQPPDSKDDTPMTLPKGSTEQDAASPEKEKMNPLEQYERKVNASVPRGFPFHSSEIQRDELAPAGTGVSREAVSGLLIMGAGGGSLIVLSMLLLRRKKPYGAISHGVVEVDPMLTLEEQQLRELQRHGYENPTYRFLEERP
notes: whole, on cells; also called amyloid beta (A4) precursor-like protein 1
binding result (Human α-syn PFF [1]): binds

B2: mouse LAG3 (receptor)
chain: GPGKELPVVWAQEGAPVHLPCSLKSPNLDPNFLRRGGVIWQHQPDSGQPTPIPALDLHQGMPSPRQPAPGRYTVLSVAPGGLRSGRQPLHPHVQLEERGLQRGDFSLWLRPALRTDAGEYHATVRLPNRALSCSLRLRVGQASMIASPSGVLKLSDWVLLNCSFSRPDRPVSVHWFQGQNRVPVYNSPRHFLAETFLLLPQVSPLDSGTWGCVLTYRDGFNVSITYNLKVLGLEPVAPLTVYAAEGSRVELPCHLPPGVGTPSLLIAKWTPPGGGPELPVAGKSGNFTLHLEAVGLAQAGTYTCSIHLQGQQLNATVTLAVITVTPKSFGLPGSRGKLLCEVTPASGKERFVWRPLNNLSRSCPGPVLEIQEARLLAERWQCQLYEGQRLLGATVYAAESSSGAHSARRISGDLKGGHLVLVLILGALSLFLLVAGAFGFHWWRKQLLLRRFSALEHGIQPFPAQRKIEELERELETEMGQEPEPEPEPQLEPEPRQL
notes: whole, on cells; In the in vivo co-IP the protein came from brain stem lysates of mice; also called LAG3 full-length (FL); neuronal LAG3
Kd [2]: 103 nM

B3: mouse LAG3 deletion mutant ΔD1 (receptor)
chain: IASPSGVLKLSDWVLLNCSFSRPDRPVSVHWFQGQNRVPVYNSPRHFLAETFLLLPQVSPLDSGTWGCVLTYRDGFNVSITYNLKVLGLEPVAPLTVYAAEGSRVELPCHLPPGVGTPSLLIAKWTPPGGGPELPVAGKSGNFTLHLEAVGLAQAGTYTCSIHLQGQQLNATVTLAVITVTPKSFGLPGSRGKLLCEVTPASGKERFVWRPLNNLSRSCPGPVLEIQEARLLAERWQCQLYEGQRLLGATVYAAESSSGAHSARRISGDLKGGHLVLVLILGALSLFLLVAGAFGFHWWRKQLLLRRFSALEHGIQPFPAQRKIEELERELETEMGQEPEPEPEPQLEPEPRQL
notes: whole, on cells; Expressed in HEK293FT cells; also called D1 domain deletion mutant
binding result [3]: no binding

B4: LAG3 (NM_002286) expressed in SH-SY5Y cells (Origene GFC-transfection array clone) (receptor)
chain: LQPGAEVPVVWAQEGAPAQLPCSPTIPLQDLSLLRRAGVTWQHQPDSGPPAAAPGHPLAPGPHPAAPSSWGPRPRRYTVLSVGPGGLRSGRLPLQPRVQLDERGRQRGDFSLWLRPARRADAGEYRAAVHLRDRALSCRLRLRLGQASMTASPPGSLRASDWVILNCSFSRPDRPASVHWFRNRGQGRVPVRESPHHHLAESFLFLPQVSPMDSGPWGCILTYRDGFNVSIMYNLTVLGLEPPTPLTVYAGAGSRVGLPCRLPAGVGTRSFLTAKWTPPGGGPDLLVTGDNGDFTLRLEDVSQAQAGTYTCHIHLQEQQLNATVTLAIITVTPKSFGSPGSLGKLLCEVTPVSGQERFVWSSLDTPSQRSFSGPWLEAQEAQLLSQPWQCQLYQGERLLGAAVYFTELSSPGAQRSGRAPGALPAGHLLLFLILGVLSLLLLVTGAFGFHLWRRQWRPRRFSALEQGIHPPQAQSKIEELEQEPEPEPEPEPEPEPEPEPEQL
notes: The clone of the screen is named by NM_002286
binding result (Human α-syn PFF [4]): binds

B5: LAG3 overexpressed in transfected cells (SH-SY5Y; HEK293FT) (receptor)
chain: B4 chain
Kd [5]: 71 nM
